Here are results for 50 sequences from the supplement of paper PMC9112550, “Optimization of the antimicrobial peptide Bac7 by deep mutational scanning” (BMC Biology, 2022).
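Note: peptides expressed intracellularly from a pBAD plasmid library in pooled LB shake-flask culture, induced with 0.3% L-arabinose, DNA abundance read by NGS, three biological replicates, DESeq2 with apeglm shrinkage.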

In the series the test system is Escherichia coli TOP10. The experiment in a line: shrunken log2 fold change of peptide-encoding DNA abundance (4.5 h post-induction vs induction); higher = less antimicrobial activity (less host growth inhibition). Particulars: time post-induction: 4.5 h; library: site-saturation at positions 5, 18, 19, 20.
With RRIRFRPPRLPRPRPRPTSEPRP, the “shrunken log2 fold change” value stood at 0.0114. As to RRIRYRPPRLPRPRPRPHTIPRP, the “shrunken log2 fold change” value was -0.852. As to RRIRLRPPRLPRPRPRPDPTPRP, the “shrunken log2 fold change” value was 0.0311.

As for RRIRPRPPRLPRPRPRPHLDPRP, the “shrunken log2 fold change” value was determined as 0.158.

In the case of RRIRTRPPRLPRPRPRPQHLPRP, the “shrunken log2 fold change” value is -0.0898.

Regarding RRIRWRPPRLPRPRPRPRSWPRP, the “shrunken log2 fold change” value amounted to 1.07. To RRIRDRPPRLPRPRPRPVICPRP belongs 0.0219; to RRIRWRPPRLPRPRPRPWAEPRP, 0.267. In the case of RRIRMRPPRLPRPRPRPLYYPRP it was -0.53; in that of RRIRSRPPRLPRPRPRPHKKPRP, -0.0645; in that of RRIRVRPPRLPRPRPRPHETPRP, -0.0244. In the case of RRIRMRPPRLPRPRPRPEARPRP it was 1.76; in that of RRIRWRPPRLPRPRPRPLTWPRP, 0.302; in that of RRIRKRPPRLPRPRPRPIRCPRP, 0.0497. Consider RRIRARPPRLPRPRPRPDCRPRP, for which the “shrunken log2 fold change” value turned out to be 0.0473. For RRIRYRPPRLPRPRPRPMDLPRP, the “shrunken log2 fold change” value was -0.0912. With RRIRVRPPRLPRPRPRPIWVPRP, the “shrunken log2 fold change” value is 0.154.

As for RRIRWRPPRLPRPRPRPYGNPRP, the “shrunken log2 fold change” value was -0.338. In the case of RRIRKRPPRLPRPRPRPDQWPRP it was 0.376; in that of RRIRKRPPRLPRPRPRPSNQPRP, -0.018. Take RRIRCRPPRLPRPRPRPHSQPRP: the “shrunken log2 fold change” value is -0.0293. In the case of RRIRVRPPRLPRPRPRPQQYPRP it was -0.258; in that of RRIRSRPPRLPRPRPRPCDEPRP, 0.124.

For the sequence RRIRWRPPRLPRPRPRPKWTPRP, the “shrunken log2 fold change” value is -0.119.

With RRIRARPPRLPRPRPRPDMWPRP, the “shrunken log2 fold change” value was 0.422. In the case of RRIRSRPPRLPRPRPRPITFPRP, the “shrunken log2 fold change” value is -0.716. In the case of RRIRFRPPRLPRPRPRPHPIPRP it was -0.0674; in that of RRIRCRPPRLPRPRPRPCMVPRP, -0.587; in that of RRIRPRPPRLPRPRPRPVWSPRP, 0.0634. Consider RRIRERPPRLPRPRPRPRSPPRP, for which the “shrunken log2 fold change” value was determined as 0.0194. Turning to RRIRLRPPRLPRPRPRPIEEPRP, the “shrunken log2 fold change” value amounted to 0.0311. As for RRIRYRPPRLPRPRPRPEYCPRP, the “shrunken log2 fold change” value is -0.414. Turning to RRIRKRPPRLPRPRPRPSVAPRP, the “shrunken log2 fold change” value is 0.394. In the case of RRIRNRPPRLPRPRPRPLNSPRP it was -0.162. To RRIRRRPPRLPRPRPRPYLGPRP belongs -0.276. To RRIRCRPPRLPRPRPRPMIDPRP belongs 0.0647; to RRIRDRPPRLPRPRPRPSFLPRP, -0.197. On to RRIRKRPPRLPRPRPRPEDEPRP, for which the “shrunken log2 fold change” value worked out at 2.15.

As for RRIRHRPPRLPRPRPRPSCIPRP, the “shrunken log2 fold change” value is -0.265. With RRIRFRPPRLPRPRPRPGHKPRP, the “shrunken log2 fold change” value came out at 0.0531. Turning to RRIRVRPPRLPRPRPRPVDVPRP, the “shrunken log2 fold change” value was -0.106. RRIRNRPPRLPRPRPRPMRVPRP: the “shrunken log2 fold change” value turned out to be 0.161.

With RRIRCRPPRLPRPRPRPMLDPRP, the “shrunken log2 fold change” value came to 0.0729. To RRIRERPPRLPRPRPRPACMPRP belongs -0.0379.

As to RRIRRRPPRLPRPRPRPCICPRP, the “shrunken log2 fold change” value was -0.0935. In the case of RRIRPRPPRLPRPRPRPILRPRP it was -0.0705. In the case of RRIRSRPPRLPRPRPRPRTFPRP it was 0.00214. For the sequence RRIRWRPPRLPRPRPRPDWCPRP, the “shrunken log2 fold change” value was 0.112.

For RRIRRRPPRLPRPRPRPVDYPRP, the “shrunken log2 fold change” value was -0.0118. RRIRERPPRLPRPRPRPQTKPRP: the “shrunken log2 fold change” value stood at 0.0765.
